# According to US10877024B2, “Methods of determining interferon having direct inhibitory effects on tumors and uses thereof” (SUPERLAB FAR EAST LIMITED, priority 2015, dated 2020):
# Where two headings read alike, the source gives them in different places.
# Tests used:
# [1] = test system: Human Cervical Cancer Hela Xenografts; assay: rSIFN-co on human cervical cancer Hela xenografts in nude mice; assay type: in vivo; conditions: for TV(mm^3, mean ± SD) (D 0): day 0; for % Inhibition / T/C (%) / TV(mm^3, mean ± SD) (D 28): day 28
# Method: Then 1.5 mm^3 fragments were prepared for s.c. implantation into the animals.
# [2] = test system: Human Colon Cancer HT-29 Xenografts; assay: rSIFN-co on human colon cancer HT-29 xenografts in nude mice; assay type: in vivo; conditions: for TV(mm^3, mean ± SD) (D 0): day 0; for % Inhibition / T/C (%) / TV(mm^3, mean ± SD) (D 28): day 28
# A549 tumor cells = assay: Cell viability, MTT assay, 1-6 days; assay type: cell-based, human; conditions: 10 μg/ml
# Method: The cell survival rate was evaluated in a standard MTT assay [3-(4,5-dimethylthiazol-2-yl)-2,5-diphenyltetrazolium bromide assay, Sigma, St. Louis, Mo.). For the assay, about 20 μl MTT (at 4 mg/ml) was added to each well. The cells were incubated at 37° C. for 4 hr. After that, the supernatant of each well was drawn off carefully and then an equal volume (150 microliter) of dimethyl sulfoxide (DMSO) was added to each well and mixed thoroughly on a shaker for 15 min. The absorbance from the plates was read at 595 nm with a Thermo Scientific Microplate Reader (Thermo Fisher Scientific Inc., Lowell, Mass.). The relative cell viability was calculated as follows: Cell viability=(Treated group(OD595) minus blank(OD595))/(Control group(OD595) minus blank(OD595))×100%.
# Lung cancer cells, A549 = assay: Colony and pseudopod formation in three dimensional Matrigel culture; assay type: cell-based, human; conditions: 10 mcg/ml
# Method: Matrigel (from BD Corporation, Cat #: 356234) was thawed on ice in a 4° C. refrigerator overnight, and a 24-well plate was frozen at −20° C. overnight. Thereafter, each well of the frozen 24-well plate was coated with 150 μl of the Matrigel at 1.0 mg/ml. The Matrigel coated plate was then incubated 37° C. for 20-30 min. Lung cancer cells, A549, were trypsinized and counted. […] The cells were incubated at 37° C. for at least about 8 days. About 200 μl of the above conditioned medium was added every 3 days to prevent the medium from drying. On the 4th or 8th day, photographs were taken to observe the size of the colonies and invasive feet (pseudopod) formation. The experiment was conducted in triplicate.
# LRP6 = assay: qPCR of Wnt-related co-receptor mRNA; assay type: cell-based, human; conditions: 10 μg/ml, 24 hr
# Method: The regulation of LRP6/FZD6 by rSIFN-co was investigated. This was conducted by qPCR as performed in Example 9. […] After 24 hr of treatment, total cellular mRNA was isolated using TRIZOL Reagent, and cDNA was subjected to qPCR using specific primers of LRP6 and FZD6. The primers used were: LRP6 sense primer: 5′-[…]-3′ (SEQ ID NO: 4) and antisense primer: 5′-[…]-3′ (SEQ ID NO: 5), and FZD6 sense primer: 5′-[…]-3′ (SEQ ID NO: 6) and antisense primer: 5′-[…]-3′ (SEQ ID NO: 7). Experiments were conducted in triplicate and normalized with the Mock control group. Results were recorded as relative mRNA level of either LRP6 or FZD6 relative to GAPDH.
# [3] = test system: procaspase-3, cleaved caspase-3, procaspase-8, cleaved caspase-8, PARP; assay: Apoptosis-related molecular markers by Western Blot; assay type: cell-based, human; conditions: A549 and SW620 cells, 24 hr or 48 hr; interferons 10 mcg/ml
# Description: Thereafter, apoptosis-related molecular markers were monitored by Western Blot. The primary antibodies used were mouse monoclonal anti-beta-tubulin (1:2000, Cat #: CW0098A) and mouse monoclonal anti-GAPDH (1:2000, Cat #: CW0100A) (Kangwei Biotechnology, China); mouse monoclonal anti-PARP (1:1000, Cat #: sc-2007, Santa Cruz Biotechnology, Inc.); rabbit monoclonal anti-procaspase 3 (1:1000, Cat #: 9665), and rabbit polyclonal anti-cleaved caspase 3 (1:1000, Cat #: 9661) (Cell Signaling Technology, USA); goat polyclonal anti-procaspase 8 (1:1000, Cat #: sc-6136, Santa Cruz Biotechnology, Inc); rabbit monoclonal anti-cleaved caspase 8 (1:1000, Cat #: 9496) (Cell Signaling Technology, USA).
# [4] = test system: human lung cancer SPC-A4 xenografts; conditions: for TV(mm^3, mean ± SD) (D 0): day 0; for % Inhibition / RTV (mean ± SD) / T/C (%) / TV(mm^3, mean ± SD) (D 21): day 21
# Method: Under sterile conditions, well-grown tumors were cut into 1.5 mm^3 fragments and one such fragment was injected by trocar needle into the right flank of each study animal. […] Individual tumor size (length and width) was measured twice per week with microcalipers. Tumor volume (V) was calculated using the formula: V=(length×width^2)/2. Individual relative tumor volume (RTV) was calculated using the formula: RTV=Vt/V0, where Vt is the tumor volume on the day of measurement and V0 is the tumor volume on the day of first treatment. Therapeutic effect of the test article or control article was expressed in terms of T/C (%), using the formula: T/C (%)=(mean RTV of the treated group/mean RTV of the control group)×100%; and in terms of % Inhibition, using the formula: % Inhibition=100%−T/C %.
# The 1.5 mm^3 fragments were then used for s.c. implantation into the test animals. The body weight of the animals averaged 22±2 g at dose initiation.
# [5] = 0.05 mg/mouse i.t. every other day
# [6] = 0.10 mg/mouse i.t. every other day
# [7] = 0.15 mg/mouse i.t. every other day
# [8] = 0.05-0.15 mg/mouse i.t. every other day, 28 days
molecule,measurement,setting,value
"rSIFN-co: Recombinant super-compound interferon; amino acid sequence SEQ ID NO: 1 (same as INFERGEN), encoded by novel nucleotide sequence SEQ ID NO: 2 (protein, Amino acid sequence of recombinant interferon) MCDLPQTHSLGNRRALILLAQMRRISPFSCLKDRHDFGFPQEEFDGNQFQKAQAISVLHEMIQQTFNLFSTKDSSAAWDESLLEKFYTELYQQLNDLEACVIQEVGVEETPLMNVDSILAVKKYFQRITLYLTEKKYSPCAWEVVRAEIMRSFSLSTNLQERLRRKE","TV(mm^3, mean ± SD) (D 0)",[1]; [5],135 ± 26 mm^3
same,% Inhibition,[1]; [5],46.67%
same,T/C (%),[1]; [5],53.33%
same,"TV(mm^3, mean ± SD) (D 28)",[1]; [5],886 ± 232 mm^3
same,"TV(mm^3, mean ± SD) (D 0)",[1]; [6],135 ± 28 mm^3
same,% Inhibition,[1]; [6],46.67%
same,T/C (%),[1]; [6],53.33%
same,"TV(mm^3, mean ± SD) (D 28)",[1]; [6],865 ± 186 mm^3
same,"TV(mm^3, mean ± SD) (D 0)",[1]; [7],136 ± 25 mm^3
same,% Inhibition,[1]; [7],40.40%
same,T/C (%),[1]; [7],59.60%
same,"TV(mm^3, mean ± SD) (D 28)",[1]; [7],1025 ± 400 mm^3
same,"tolerability, signs of toxicity",[1]; [8],tolerated the rSIFN-co treatments with no signs of toxicity
same,change in average body weight,[1]; 28-day treatment period,Very little change in average body weight
same,"TV(mm^3, mean ± SD) (D 0)",[2]; [5],130 ± 26 mm^3
same,% Inhibition,[2]; [5],61%
same,T/C (%),[2]; [5],39%
same,"TV(mm^3, mean ± SD) (D 28)",[2]; [5],416 ± 166 mm^3
same,"TV(mm^3, mean ± SD) (D 0)",[2]; [6],128 ± 39 mm^3
same,% Inhibition,[2]; [6],49.82%
same,T/C (%),[2]; [6],50.18%
same,"TV(mm^3, mean ± SD) (D 28)",[2]; [6],541 ± 196 mm^3
same,"TV(mm^3, mean ± SD) (D 0)",[2]; [7],131 ± 36 mm^3
same,% Inhibition,[2]; [7],46.37%
same,T/C (%),[2]; [7],53.63%
same,"TV(mm^3, mean ± SD) (D 28)",[2]; [7],570 ± 144 mm^3
same,"tolerability, signs of drug toxicity, changes in weight",[2]; [8],tolerated the tested dosages and showed no signs of drug toxicity and minimal changes in weight
same,cell viability over time (MTT),A549 tumor cells,also apparent for A549 cells for only about the first 3 days of treatment
same,size of the colonies,"Lung cancer cells, A549; after 4 days",smaller colonies than the untreated group
same,invasive feet (pseudopod) formation,"Lung cancer cells, A549; after 8 days",almost no extrusive pseudopodium around the cells
same,size of the colonies,"Lung cancer cells, A549; after 8 days",smallest colonies of the 3 groups
same,relative expression of the LRP6 mRNA,LRP6; A549 cells,significant reduction
same,relative expression of the LRP6 mRNA,LRP6; HT-29 cells,significant reduction
same,relative expression of the LRP6 mRNA,LRP6; SW620 cells,significant reduction
same,level of cleaved caspase-3 and cleaved caspase-8,[3],"neither of the interferons, IFN alpha-2b nor rSIFN-co, caused any reduction in the level of procaspase-3 or procaspase-8 or PARP, or induced any enhancement"
same,"level of procaspase-3, procaspase-8 and PARP",[3],"neither of the interferons, IFN alpha-2b nor rSIFN-co, caused any reduction"
same,mortality,[4]; [5],one mouse in the 0.05 mg rSIFN-co-treated group died on day 17
same,"TV(mm^3, mean ± SD) (D 0)",[4]; [5],170 ± 41 mm^3
same,% Inhibition,[4]; [5],63.68%
same,RTV (mean ± SD),[4]; [5],15.45 ± 9.07
same,T/C (%),[4]; [5],36.32%
same,"TV(mm^3, mean ± SD) (D 21)",[4]; [5],2244 ± 1043 mm^3
same,"TV(mm^3, mean ± SD) (D 0)",[4]; [6],168 ± 49 mm^3
same,% Inhibition,[4]; [6],64.95%
same,RTV (mean ± SD),[4]; [6],14.91 ± 11.19
same,T/C (%),[4]; [6],35.05%
same,"TV(mm^3, mean ± SD) (D 21)",[4]; [6],2388 ± 1544 mm^3
same,"TV(mm^3, mean ± SD) (D 0)",[4]; [7],169 ± 40 mm^3
same,% Inhibition,[4]; [7],67.75%
same,RTV (mean ± SD),[4]; [7],13.72 ± 3.96
same,T/C (%),[4]; [7],32.25%
same,"TV(mm^3, mean ± SD) (D 21)",[4]; [7],2284 ± 653 mm^3
same,"tolerability, signs of toxicity or weight loss","[4]; 0.05-0.15 mg/mouse i.t. every other day, 21 days",no signs of toxicity or weight loss were observed
